Assay results from patent US20070280939A1 (published 2007).

Target: T1, HLA-A2*0201 on T2 cells (human)
T1 construct: whole, on cells; also called HLA-A2 antigen
Assay: T2 cell HLA-A2 stabilisation assay, flow cytometry
Method: T2 cells incubated with peptides were stained for the presence of cell surface HLA-A2 antigen using flow cytometry. Fluorescent intensity of stained cells was used to determine the ability of test peptides to bind and therefore stabilise HLA-A2. […] The RBI was calculated for each peptide from the obtained mean fluorescence intensity (MFI) of T2 cells incubated with test peptide divided by the MFI obtained from cells incubated with 100% DMSO alone.
T2 cells were washed twice in serum-free RPMI and incubated overnight at 37° C. in a round-bottomed 96 well plate in 50 μl serum-free RPMI containing 160,000 cells and final concentrations of 100, 10 and 1 μM of peptide. A negative control was provided by adding dilute DMSO without peptide to 2 wells. […] After washing in phosphate buffered saline (PBS) (Oxoid, UK) containing 0.1% bovine serum albumin (BSA) (Sigma, USA), the cells were incubated on ice for 30 minutes with 20 μl of mouse antihuman HLA-A2 antibody MA2.1 (ATCC, UK). Following washing with PBS+BSA, 100 μl of a 1/100 dilution of FITC labelled goat anti-mouse IgG (Sigma, USA) was added and the cells incubated for 30 minutes on ice. The cells were washed twice using PBS+BSA, fixed in 500 μl Isoton and allowed to normalise to room temperature for 20 minutes prior to analysis by flow cytometry.

ALASCFCFFC [PAP.15]
binding result: no binding (tested: 100 µM, 10 µM and 1 µM)
